For assay [1], the target named is T1, human calcitonin receptor (human, UniProt P30988 25-474).
T1 sequence (looked up): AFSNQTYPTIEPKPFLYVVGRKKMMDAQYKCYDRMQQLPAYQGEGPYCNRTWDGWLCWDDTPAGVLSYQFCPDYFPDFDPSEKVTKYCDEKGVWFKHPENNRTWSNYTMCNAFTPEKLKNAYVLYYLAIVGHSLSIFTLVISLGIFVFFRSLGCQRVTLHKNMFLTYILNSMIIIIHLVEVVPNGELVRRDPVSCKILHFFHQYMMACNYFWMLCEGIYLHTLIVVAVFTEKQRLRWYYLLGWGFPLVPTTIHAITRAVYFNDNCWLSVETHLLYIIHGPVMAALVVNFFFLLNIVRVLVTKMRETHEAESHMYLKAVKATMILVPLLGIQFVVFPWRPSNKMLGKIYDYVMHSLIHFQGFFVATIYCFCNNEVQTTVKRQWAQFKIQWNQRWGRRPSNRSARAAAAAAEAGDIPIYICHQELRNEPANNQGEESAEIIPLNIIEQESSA
Briefly: cell-based or functional assay.

In assay [2] the target is T2, human amylin receptor (calcitonin receptor co-expressed with receptor activity modifying protein, RAMP3) (human, UniProt P30988 25-474; O60896 24-148).
T2 sequence (looked up) 1: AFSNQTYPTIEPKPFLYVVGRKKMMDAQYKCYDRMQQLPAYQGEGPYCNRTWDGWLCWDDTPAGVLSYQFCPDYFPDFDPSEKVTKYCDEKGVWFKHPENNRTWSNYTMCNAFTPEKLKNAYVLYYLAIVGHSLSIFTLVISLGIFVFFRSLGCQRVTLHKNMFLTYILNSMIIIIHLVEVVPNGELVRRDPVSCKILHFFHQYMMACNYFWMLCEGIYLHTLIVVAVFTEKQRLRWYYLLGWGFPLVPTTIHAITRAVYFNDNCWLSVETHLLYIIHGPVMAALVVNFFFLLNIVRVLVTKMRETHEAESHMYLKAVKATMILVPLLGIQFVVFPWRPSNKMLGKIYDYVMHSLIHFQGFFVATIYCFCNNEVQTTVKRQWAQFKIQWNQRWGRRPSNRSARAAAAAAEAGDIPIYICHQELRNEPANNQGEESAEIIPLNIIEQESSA
T2 sequence (looked up) 2: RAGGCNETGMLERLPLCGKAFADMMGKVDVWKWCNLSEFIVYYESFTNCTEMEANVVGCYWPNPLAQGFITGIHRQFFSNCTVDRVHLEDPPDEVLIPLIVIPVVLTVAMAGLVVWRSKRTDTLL
Put plainly: cell-based or functional assay.

Numbered stars: 1 amine (or outer) side, 2 acyl side, 3 side chain; on linkers, the order of the positions; unused ones are H or OH. Bridge positions count the residues as written; N and C are the ends. Square brackets hold non-standard residues; d marks the D form. Side chains are listed from the residue outwards. Ends that are not written are not given here. * marks the point of attachment. C18 diacid = O=C(O)CCCCCCCCCCCCCCCCC(=O)*; γGlu = O=C(O)[C@H](CCC(=O)[*:2])N[*:1]; AEEA = NCCOCCOCC(=O)O; Aib = CC(C)(N)C(=O)O

B1: Peptide 45 (SEQ ID NO: 45) (peptide)
peptide: K([AEEA-AEEA-γGlu-C18 diacid])CNTATCATQRLANFLRHSS[Aib]NFGPILPPTEVGSNTY-NH2
modifications: disulfide 2-7; N-terminus assumed
SMILES: CC[C@H](C)[C@H](NC(=O)[C@@H]1CCCN1C(=O)CNC(=O)[C@H](Cc1ccccc1)NC(=O)[C@H](CC(N)=O)NC(=O)C(C)(C)NC(=O)[C@H](CO)NC(=O)[C@H](CO)NC(=O)[C@H](Cc1c[nH]cn1)NC(=O)[C@H](CCCNC(=N)N)NC(=O)[C@H](CC(C)C)NC(=O)[C@H](Cc1ccccc1)NC(=O)[C@H](CC(N)=O)NC(=O)[C@H](C)NC(=O)[C@H](CC(C)C)NC(=O)[C@H](CCCNC(=N)N)NC(=O)[C@H](CCC(N)=O)NC(=O)[C@@H](NC(=O)[C@H](C)NC(=O)[C@@H]1CSSC[C@H](NC(=O)[C@@H](N)CCCCNC(=O)COCCOCCNC(=O)COCCOCCNC(=O)CC[C@H](NC(=O)CCCCCCCCCCCCCCCCC(=O)O)C(=O)O)C(=O)N[C@@H](CC(N)=O)C(=O)N[C@@H]([C@@H](C)O)C(=O)N[C@@H](C)C(=O)N[C@@H]([C@@H](C)O)C(=O)N1)[C@@H](C)O)C(=O)N[C@@H](CC(C)C)C(=O)N1CCC[C@H]1C(=O)N1CCC[C@H]1C(=O)N[C@H](C(=O)N[C@@H](CCC(=O)O)C(=O)N[C@H](C(=O)NCC(=O)N[C@@H](CO)C(=O)N[C@@H](CC(N)=O)C(=O)N[C@H](C(=O)N[C@@H](Cc1ccc(O)cc1)C(N)=O)[C@@H](C)O)C(C)C)[C@@H](C)O
Consider B1, for which the “EC50 (cAMP production)” value in assay [1] stood at 16.9 nM. Further, in assay [2], the “EC50 (cAMP production)” value was 0.588 nM and the “Ratio (EC50 hCTR / EC50 hAMYR3)” value was 29.

B2: Peptide 39 (SEQ ID NO: 39) (peptide)
peptide: K([γGlu-C18 diacid])KCNTATCATQRLANFLEHSS[Aib]NFGPILPPTNVGSNTY-NH2
modifications: disulfide 3-8; N-terminus assumed
SMILES: CC[C@H](C)[C@H](NC(=O)[C@@H]1CCCN1C(=O)CNC(=O)[C@H](Cc1ccccc1)NC(=O)[C@H](CC(N)=O)NC(=O)C(C)(C)NC(=O)[C@H](CO)NC(=O)[C@H](CO)NC(=O)[C@H](Cc1c[nH]cn1)NC(=O)[C@H](CCC(=O)O)NC(=O)[C@H](CC(C)C)NC(=O)[C@H](Cc1ccccc1)NC(=O)[C@H](CC(N)=O)NC(=O)[C@H](C)NC(=O)[C@H](CC(C)C)NC(=O)[C@H](CCCNC(=N)N)NC(=O)[C@H](CCC(N)=O)NC(=O)[C@@H](NC(=O)[C@H](C)NC(=O)[C@@H]1CSSC[C@H](NC(=O)[C@H](CCCCN)NC(=O)[C@@H](N)CCCCNC(=O)CC[C@H](NC(=O)CCCCCCCCCCCCCCCCC(=O)O)C(=O)O)C(=O)N[C@@H](CC(N)=O)C(=O)N[C@@H]([C@@H](C)O)C(=O)N[C@@H](C)C(=O)N[C@@H]([C@@H](C)O)C(=O)N1)[C@@H](C)O)C(=O)N[C@@H](CC(C)C)C(=O)N1CCC[C@H]1C(=O)N1CCC[C@H]1C(=O)N[C@H](C(=O)N[C@@H](CC(N)=O)C(=O)N[C@H](C(=O)NCC(=O)N[C@@H](CO)C(=O)N[C@@H](CC(N)=O)C(=O)N[C@H](C(=O)N[C@@H](Cc1ccc(O)cc1)C(N)=O)[C@@H](C)O)C(C)C)[C@@H](C)O
B2: the “EC50 (cAMP production)” value in assay [1] was 10.4 nM; in assay [2] it was 1.05 nM. For the same molecule, the “Ratio (EC50 hCTR / EC50 hAMYR3)” value in assay [2] was 10.

B3: Peptide 42 (SEQ ID NO: 42) (peptide)
peptide: K([γGlu-C18 diacid])KCNTATCATQRLANFLVHSS[Aib]NFGPILPPTNVGSETY-NH2
modifications: disulfide 3-8; N-terminus assumed
SMILES: CC[C@H](C)[C@H](NC(=O)[C@@H]1CCCN1C(=O)CNC(=O)[C@H](Cc1ccccc1)NC(=O)[C@H](CC(N)=O)NC(=O)C(C)(C)NC(=O)[C@H](CO)NC(=O)[C@H](CO)NC(=O)[C@H](Cc1c[nH]cn1)NC(=O)[C@@H](NC(=O)[C@H](CC(C)C)NC(=O)[C@H](Cc1ccccc1)NC(=O)[C@H](CC(N)=O)NC(=O)[C@H](C)NC(=O)[C@H](CC(C)C)NC(=O)[C@H](CCCNC(=N)N)NC(=O)[C@H](CCC(N)=O)NC(=O)[C@@H](NC(=O)[C@H](C)NC(=O)[C@@H]1CSSC[C@H](NC(=O)[C@H](CCCCN)NC(=O)[C@@H](N)CCCCNC(=O)CC[C@H](NC(=O)CCCCCCCCCCCCCCCCC(=O)O)C(=O)O)C(=O)N[C@@H](CC(N)=O)C(=O)N[C@@H]([C@@H](C)O)C(=O)N[C@@H](C)C(=O)N[C@@H]([C@@H](C)O)C(=O)N1)[C@@H](C)O)C(C)C)C(=O)N[C@@H](CC(C)C)C(=O)N1CCC[C@H]1C(=O)N1CCC[C@H]1C(=O)N[C@H](C(=O)N[C@@H](CC(N)=O)C(=O)N[C@H](C(=O)NCC(=O)N[C@@H](CO)C(=O)N[C@@H](CCC(=O)O)C(=O)N[C@H](C(=O)N[C@@H](Cc1ccc(O)cc1)C(N)=O)[C@@H](C)O)C(C)C)[C@@H](C)O
Take B3: the entries for the “EC50 (cAMP production)” value in assay [1] and in assay [2] were 2.95 nM and 0.47 nM, respectively. Also, in assay [2], the “Ratio (EC50 hCTR / EC50 hAMYR3)” value was determined as 6.
For K([AEEA-AEEA-γGlu-C18 diacid])CNTATCATQRLANFLVHSSNNFGPILPPTNVGSNTY-NH2 (disulfide 2-7) [Peptide 6 (SEQ ID NO: 6)] the same measures were 0.31 nM, 0.068 nM and 5.
For K([γGlu-γGlu-C18 diacid])CNTATCATQRLANFLVHSSNNFGPILPPTNVGSNTY-NH2 (disulfide 2-7) [Peptide 5 (SEQ ID NO: 5)] the same measures were 3.6 nM, 0.174 nM and 21.

B4: Peptide 37 (SEQ ID NO: 37) (peptide)
peptide: K([γGlu-C18 diacid])KCNTATCATQRLANFLSHSS[Aib]NFGPILPPTNVGSNTY-NH2
modifications: disulfide 3-8; N-terminus assumed
SMILES: CC[C@H](C)[C@H](NC(=O)[C@@H]1CCCN1C(=O)CNC(=O)[C@H](Cc1ccccc1)NC(=O)[C@H](CC(N)=O)NC(=O)C(C)(C)NC(=O)[C@H](CO)NC(=O)[C@H](CO)NC(=O)[C@H](Cc1c[nH]cn1)NC(=O)[C@H](CO)NC(=O)[C@H](CC(C)C)NC(=O)[C@H](Cc1ccccc1)NC(=O)[C@H](CC(N)=O)NC(=O)[C@H](C)NC(=O)[C@H](CC(C)C)NC(=O)[C@H](CCCNC(=N)N)NC(=O)[C@H](CCC(N)=O)NC(=O)[C@@H](NC(=O)[C@H](C)NC(=O)[C@@H]1CSSC[C@H](NC(=O)[C@H](CCCCN)NC(=O)[C@@H](N)CCCCNC(=O)CC[C@H](NC(=O)CCCCCCCCCCCCCCCCC(=O)O)C(=O)O)C(=O)N[C@@H](CC(N)=O)C(=O)N[C@@H]([C@@H](C)O)C(=O)N[C@@H](C)C(=O)N[C@@H]([C@@H](C)O)C(=O)N1)[C@@H](C)O)C(=O)N[C@@H](CC(C)C)C(=O)N1CCC[C@H]1C(=O)N1CCC[C@H]1C(=O)N[C@H](C(=O)N[C@@H](CC(N)=O)C(=O)N[C@H](C(=O)NCC(=O)N[C@@H](CO)C(=O)N[C@@H](CC(N)=O)C(=O)N[C@H](C(=O)N[C@@H](Cc1ccc(O)cc1)C(N)=O)[C@@H](C)O)C(C)C)[C@@H](C)O
Turning to B4, the “EC50 (cAMP production)” value in assay [1] came out at 1.96 nM; in assay [2], 0.249 nM. Further, the “Ratio (EC50 hCTR / EC50 hAMYR3)” value in assay [2] was determined as 8.

B5: Peptide 36 (SEQ ID NO: 36) (peptide)
peptide: K([γGlu-C18 diacid])KCNTATCATQRLANFL[Aib]HSS[Aib]NFGPILPPTNVGSNTY-NH2
modifications: disulfide 3-8; N-terminus assumed
SMILES: CC[C@H](C)[C@H](NC(=O)[C@@H]1CCCN1C(=O)CNC(=O)[C@H](Cc1ccccc1)NC(=O)[C@H](CC(N)=O)NC(=O)C(C)(C)NC(=O)[C@H](CO)NC(=O)[C@H](CO)NC(=O)[C@H](Cc1c[nH]cn1)NC(=O)C(C)(C)NC(=O)[C@H](CC(C)C)NC(=O)[C@H](Cc1ccccc1)NC(=O)[C@H](CC(N)=O)NC(=O)[C@H](C)NC(=O)[C@H](CC(C)C)NC(=O)[C@H](CCCNC(=N)N)NC(=O)[C@H](CCC(N)=O)NC(=O)[C@@H](NC(=O)[C@H](C)NC(=O)[C@@H]1CSSC[C@H](NC(=O)[C@H](CCCCN)NC(=O)[C@@H](N)CCCCNC(=O)CC[C@H](NC(=O)CCCCCCCCCCCCCCCCC(=O)O)C(=O)O)C(=O)N[C@@H](CC(N)=O)C(=O)N[C@@H]([C@@H](C)O)C(=O)N[C@@H](C)C(=O)N[C@@H]([C@@H](C)O)C(=O)N1)[C@@H](C)O)C(=O)N[C@@H](CC(C)C)C(=O)N1CCC[C@H]1C(=O)N1CCC[C@H]1C(=O)N[C@H](C(=O)N[C@@H](CC(N)=O)C(=O)N[C@H](C(=O)NCC(=O)N[C@@H](CO)C(=O)N[C@@H](CC(N)=O)C(=O)N[C@H](C(=O)N[C@@H](Cc1ccc(O)cc1)C(N)=O)[C@@H](C)O)C(C)C)[C@@H](C)O
As for B5, the “EC50 (cAMP production)” value in assay [1] stood at 6.39 nM. Besides, in assay [2], the “EC50 (cAMP production)” value stood at 0.331 nM and the “Ratio (EC50 hCTR / EC50 hAMYR3)” value was determined as 19.
